Laboratory results: patent publication US20250179205A1 (Hoffmann-La Roche, published 2025)

How the values were obtained:
[1] = target: T1, His-tagged human dimeric FAP (recombinant FAP_ECD) (human, UniProt Q12884 27-760); test: SPR (Biacore T200), His-tagged dimeric huFAP ECD captured by anti-His, antibody as analyte, 1:1 fit (avidity)
T1 construct: also called hu FAP ectodomain + poly-lys-tag + his6-tag
Description: The capacity of the bispecific constructs to bind human FAP was assessed by surface plasmon resonance (SPR). All SPR experiments were performed on a BIACORE® T200 (BIACORE®) at 25° C. with HBS-EP as running buffer (0.01 M HEPES pH 7.4, 0.15 M NaCl, 3 mM EDTA, 0.005% Surfactant P20, (BIACORE®).
His-tagged human dimeric FAP (recombinant FAP_ECD) was captured on a CM5 chip (GE Healthcare) immobilized with anti-His antibody (Qiagen Cat. No. 34660) by injection of 500 nM huFAP for 60 s at a flow rate of 10 uL/min, 10 nM murine FAP for 20 s at a flow rate of 20 uL/min and 10 nM cynoFAP for 20 s at a flow rate of 20 uL/min. Immobilization levels for the anti-His antibody of up to 18000 resonance units (RU) were used. Following the capture step, the bispecific antibodies as well as control molecules were immediately passed over the chip surface at a concentration ranging from 0.78-100 nM with a flow rate of […] for 280 s and a dissociation phase of 180 s. Bulk refractive index differences were corrected for by subtracting the response obtained in a reference flow cell, where no FAP was immobilized. Avidity was determined using the Langmuir 1:1 curve fitting. For bivalent binding the same 1:1 fitting was used leading to an apparent KD value.

[2] = target: T2, human fibroblast activation protein (huFAP) (human, UniProt Q12884 1-760); test: flow cytometry, NIH/3T3-huFAP clone 19 cells, PE anti-human Fc F(ab')2
T2 construct: expressed on transfected NIH/3T3-huFAP clone 19 cells; also called human FAP
Description: (§1) NIH/3T3-huFAP clone 19 and NIH/3T3-mFAP clone 26 were generated by the transfection of the mouse embryonic fibroblast NIH/3T3 cell line (ATCC CRL-1658) with the expression vector pETR4921 to express under 1.5 μg/mL Puromycin selection huFAP or mFAP, respectively.
(§2) NIH/3T3-huFAP, NIH/3T3-mFAP or NIH/3T3-wt cells were cultured with 1× Dulbecco's Modified Eagle's Medium (DMEM) (Gibco, Cat. No. 42430-025) supplemented with 10% Fetal Bovine Serum (FBS) (life technologies, Cat. No. 16140, Lot No. 1797306A). For the NIH/3T3-huFAP and NIH/3T3-mFAP cells 1.5 μg/mL Puromycin (Gibco, Cat. No. A11138-03) was added to the medium for selection of FAP-expressing cells. NIH/3T3 cells were removed from the plate by using enzyme-free Cell Dissociation Buffer (Gibco, Cat. No. 13151014). 0.3×10⁵ NIH/3T3-huFAP clone 19, NIH/3T3-mFAP clone 26 or NIH/3T3-wt were added in 200 μl of 1×DMEM 10% FBS to each well of a round-bottom 96-well plate (Greiner Bio-One, CELLSTAR®, Cat. No. 650185). Plates were centrifuged 5 minutes at 1700 rpm and supernatants were flicked off. Cells were washed once with 200 μL of 4° C. cold FACS buffer (eBioscience, Cat. No. 00-4222-26). All samples were resuspended in 50 μL/well of 4° C. cold FACS buffer containing the bispecific antigen binding molecules (primary antibody) or isotype control antibody DP47 at the indicated range of concentrations (in duplicates) and incubated for 120 minutes at 4° C. Afterwards the cells were washed three times with 200 μL 4° C. cold FACS buffer. Cells were further stained with 25 μL/well of 4° C. cold secondary antibody solution (1:50 dilution of secondary antibody) containing R-Phycoerythrin (PE) conjugated AffiniPure F(ab′)₂ Fragment Goat Anti-Human IgG, Fcγ Fragment Specific (Jackson ImmunoResearch, Cat. No. 109-116-098) and incubated for 60 minutes at 4° C. in the dark. Cells were washed with 200 μl FACS buffer and resuspended in 85 μL/well FACS-buffer containing 0.2 μg/mL DAPI (Roche, Cat. No. 10236276001) and acquired the same day using 5-laser LSR-Fortessa (BD Bioscience with DIVA software). Data analysis was performed using the FlowJo version 10 software (FlowJo LLC).

[3] = target: T3, mouse fibroblast activation protein (mFAP) (mouse, UniProt P97321 1-761); test: flow cytometry on NIH/3T3-mFAP cells (3T3_mFAP), PE-labelled anti-human IgG Fcgamma F(ab')2 secondary, MFI baseline corrected
T3 construct: expressed on transfected NIH/3T3-mFAP clone 26 cells; also called murine FAP; mouse FAP
T3 sequence (P97321 whole entry): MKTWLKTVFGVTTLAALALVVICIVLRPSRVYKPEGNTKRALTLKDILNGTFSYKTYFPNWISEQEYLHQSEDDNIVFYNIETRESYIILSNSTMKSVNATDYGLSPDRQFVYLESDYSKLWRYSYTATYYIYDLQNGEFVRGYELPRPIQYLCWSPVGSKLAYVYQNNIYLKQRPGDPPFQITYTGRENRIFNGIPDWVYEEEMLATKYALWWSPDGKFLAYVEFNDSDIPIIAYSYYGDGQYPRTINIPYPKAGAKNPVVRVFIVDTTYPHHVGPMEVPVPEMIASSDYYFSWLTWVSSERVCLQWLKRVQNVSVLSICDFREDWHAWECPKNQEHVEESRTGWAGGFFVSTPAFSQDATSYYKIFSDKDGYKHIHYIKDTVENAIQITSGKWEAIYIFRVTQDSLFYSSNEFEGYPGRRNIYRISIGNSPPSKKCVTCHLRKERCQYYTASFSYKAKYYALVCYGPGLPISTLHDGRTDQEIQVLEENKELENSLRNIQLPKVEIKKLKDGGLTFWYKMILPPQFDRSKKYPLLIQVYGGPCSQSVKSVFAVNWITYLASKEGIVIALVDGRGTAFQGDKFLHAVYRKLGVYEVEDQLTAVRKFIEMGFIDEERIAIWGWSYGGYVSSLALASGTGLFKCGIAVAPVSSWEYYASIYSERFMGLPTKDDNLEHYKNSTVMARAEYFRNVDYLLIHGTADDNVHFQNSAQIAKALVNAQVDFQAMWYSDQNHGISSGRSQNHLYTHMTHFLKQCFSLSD
Description: as §1, §2

Binder | Kd [1] [nM] | koff [1] [s⁻¹] | kon [1] [M⁻¹ s⁻¹] | EC50 [2] [nM] | binding result [3]
P1AD4520 or P1AD9139 mu CD40 (FGK4.5) × FAP (28H1) (4 + 1) (bispecific antibody, mouse IgG1, kappa, murine surrogate, tetravalent for mouse CD40, monovalent for FAP (28H1); mouse IgG1 DAPG, DD/KK; also called 4 + 1 with C-terminal VH/VL fusion; muCD40-28H1) heavy 1: EVQLVESDGGLVQPGRSLKLPCAASGFTFSDYYMAWVRQAPTKGLEWVASISYDGSSTYYRDSVKGRFTISRDNAKSTLYLQMDSLRSEDTATYYCGRHSSYFDYWGQGVMVTVSSAKTTPPSVYPLAPGSAAQTNSMVTLGCLVKGYFPEPVTVTWNSGSLSSGVHTFPAVLQSDLYTLSSSVTVPSSTWPSQTVTCNVAHPASSTKVDKKIVPRDCGGGGSGGGGSEVQLVESDGGLVQPGRSLKLPCAASGFTFSDYYMAWVRQAPTKGLEWVASISYDGSSTYYRDSVKGRFTISRDNAKSTLYLQMDSLRSEDTATYYCGRHSSYFDYWGQGVMVTVSSAKTTPPSVYPLAPGSAAQTNSMVTLGCLVKGYFPEPVTVTWNSGSLSSGVHTFPAVLQSDLYTLSSSVTVPSSTWPSQTVTCNVAHPASSTKVDKKIVPRDCGCKPCICTVPEVSSVFIFPPKPKDVLTITLTPKVTCVVVAISKDDPEVQFSWFVDDVEVHTAQTKPREEQINSTFRSVSELPIMHQDWLNGKEFKCRVNSAAFGAPIEKTISKTKGRPKAPQVYTIPPPKKQMAKDKVSLTCMITNFFPEDITVEWQWNGQPAENYKNTQPIMKTDGSYFVYSKLNVQKSNWEAGNTFTCSVLHEGLHNHHTEKSLSHSPGGGGGSGGGGSGGGGSGGGGSEVQLLESGGGLVQPGGSLRLSCAASGFTFSSHAMSWVRQAPGKGLEWVSAIWASGEQYYADSVKGRFTISRDNSKNTLYLQMNSLRAEDTAVYYCAKGWLGNFDYWGQGTLVTVSS heavy 2: EVQLVESDGGLVQPGRSLKLPCAASGFTFSDYYMAWVRQAPTKGLEWVASISYDGSSTYYRDSVKGRFTISRDNAKSTLYLQMDSLRSEDTATYYCGRHSSYFDYWGQGVMVTVSSAKTTPPSVYPLAPGSAAQTNSMVTLGCLVKGYFPEPVTVTWNSGSLSSGVHTFPAVLQSDLYTLSSSVTVPSSTWPSQTVTCNVAHPASSTKVDKKIVPRDCGGGGSGGGGSEVQLVESDGGLVQPGRSLKLPCAASGFTFSDYYMAWVRQAPTKGLEWVASISYDGSSTYYRDSVKGRFTISRDNAKSTLYLQMDSLRSEDTATYYCGRHSSYFDYWGQGVMVTVSSAKTTPPSVYPLAPGSAAQTNSMVTLGCLVKGYFPEPVTVTWNSGSLSSGVHTFPAVLQSDLYTLSSSVTVPSSTWPSQTVTCNVAHPASSTKVDKKIVPRDCGCKPCICTVPEVSSVFIFPPKPKDVLTITLTPKVTCVVVAISKDDPEVQFSWFVDDVEVHTAQTKPREEQINSTFRSVSELPIMHQDWLNGKEFKCRVNSAAFGAPIEKTISKTKGRPKAPQVYTIPPPKEQMAKDKVSLTCMITNFFPEDITVEWQWNGQPAENYDNTQPIMDTDGSYFVYSDLNVQKSNWEAGNTFTCSVLHEGLHNHHTEKSLSHSPGGGGGSGGGGSGGGGSGGGGSEIVLTQSPGTLSLSPGERATLSCRASQSVSRSYLAWYQQKPGQAPRLLIIGASTRATGIPDRFSGSGSGTDFTLTISRLEPEDFAVYYCQQGQVIPPTFGQGTKVEIK light: DTVLTQSPALAVSPGERVTISCRASDSVSTLMHWYQQKPGQQPKLLIYLASHLESGVPARFSGSGSGTDFTLTIDPVEADDTATYYCQQSWNDPWTFGGGTKLELKRADAAPTVSIFPPSSEQLTSGGASVVCFLNNFYPKDINVKWKIDGSERQNGVLNSWTDQDSKDSTYSMSSTLTLTKDEYERHNSYTCEATHKTSTSPIVKSFNRNEC | 2.7 | 0.00155 | 576000 |  | 
P1AA9641 CD40 × FAP (28H1) (2 + 1) (bispecific antibody, human IgG1, kappa, L234A L235A, 28H1 VH and VL fused to the C-termini of the knob and hole heavy chains; also called CD40 × FAP 2 + 1; huCD40-28H1) heavy 1: EVQLVESGGGLVQPGGSLRLSCAASGYSFTGYYIHWVRQAPGKGLEWVARVIPNAGGTSYNQKFKGRFTLSVDNSKNTAYLQMNSLRAEDTAVYYCAREGIYWWGQGTLVTVSSASTKGPSVFPLAPSSKSTSGGTAALGCLVKDYFPEPVTVSWNSGALTSGVHTFPAVLQSSGLYSLSSVVTVPSSSLGTQTYICNVNHKPSNTKVDKKVEPKSCDKTHTCPPCPAPEAAGGPSVFLFPPKPKDTLMISRTPEVTCVVVDVSHEDPEVKFNWYVDGVEVHNAKTKPREEQYNSTYRVVSVLTVLHQDWLNGKEYKCKVSNKALGAPIEKTISKAKGQPREPQVCTLPPSRDELTKNQVSLSCAVKGFYPSDIAVEWESNGQPENNYKTTPPVLDSDGSFFLVSKLTVDKSRWQQGNVFSCSVMHEALHNHYTQKSLSLSPGGGGGSGGGGSGGGGSGGGGSEIVLTQSPGTLSLSPGERATLSCRASQSVSRSYLAWYQQKPGQAPRLLIIGASTRATGIPDRFSGSGSGTDFTLTISRLEPEDFAVYYCQQGQVIPPTFGQGTKVEIK heavy 2: not shown light: DIQMTQSPSSLSASVGDRVTITCRSSQSLVHSNGNTFLHWYQQKPGKAPKLLIYTVSNRFSGVPSRFSGSGSGTDFTLTISSLQPEDFATYFCSQTTHVPWTFGQGTKVEIKRTVAAPSVFIFPPSDEQLKSGTASVVCLLNNFYPREAKVQWKVDNALQSGNSQESVTEQDSKDSTYSLSSTLTLSKADYEKHKVYACEVTHQGLSSPVTKSFNRGEC |  |  |  | 33 | binds

Further lines, results first:

Kd [1] [nM] | koff [1] [s⁻¹] | kon [1] [M⁻¹ s⁻¹] | EC50 [2] [nM] | binding result [3] | Binder
0.08 | 0.000172 | 2.19e+06 |  |  | 4B9 IgG1 (antibody, V domains shown, IgG1; also called Control; FAP(4B9)) VH: EVQLLESGGGLVQPGGSLRLSCAASGFTFSSYAMSWVRQAPGKGLEWVSAIIGSGASTYYADSVKGRFTISRDNSKNTLYLQMNSLRAEDTAVYYCAKGWFGGFNYWGQGTLVTVSS VL: EIVLTQSPGTLSLSPGERATLSCRASQSVTSSYLAWYQQKPGQAPRLLINVGSRRATGIPDRFSGSGSGTDFTLTISRLEPEDFAVYYCQQGIMLPPTFGQGTKVEIK
 |  |  | 47.1 | binds | P1AD4453 CD40 × FAP (28H1) (4 + 1) (bispecific antibody, human IgG1, kappa, L234A L235A, 28H1 VH and VL fused to the C-termini of the knob and hole heavy chains; also called CD40 × FAP 4 + 1; huCD40-28H1) heavy 1: not shown heavy 2: EVQLVESGGGLVQPGGSLRLSCAASGYSFTGYYIHWVRQAPGKGLEWVARVIPNAGGTSYNQKFKGRFTLSVDNSKNTAYLQMNSLRAEDTAVYYCAREGIYWWGQGTLVTVSSASTKGPSVFPLAPSSKSTSGGTAALGCLVKDYFPEPVTVSWNSGALTSGVHTFPAVLQSSGLYSLSSVVTVPSSSLGTQTYICNVNHKPSNTKVDKKVEPKSCDGGGGSGGGGSEVQLVESGGGLVQPGGSLRLSCAASGYSFTGYYIHWVRQAPGKGLEWVARVIPNAGGTSYNQKFKGRFTLSVDNSKNTAYLQMNSLRAEDTAVYYCAREGIYWWGQGTLVTVSSASTKGPSVFPLAPSSKSTSGGTAALGCLVKDYFPEPVTVSWNSGALTSGVHTFPAVLQSSGLYSLSSVVTVPSSSLGTQTYICNVNHKPSNTKVDKKVEPKSCDKTHTCPPCPAPEAAGGPSVFLFPPKPKDTLMISRTPEVTCVVVDVSHEDPEVKFNWYVDGVEVHNAKTKPREEQYNSTYRVVSVLTVLHQDWLNGKEYKCKVSNKALGAPIEKTISKAKGQPREPQVCTLPPSRDELTKNQVSLSCAVKGFYPSDIAVEWESNGQPENNYKTTPPVLDSDGSFFLVSKLTVDKSRWQQGNVFSCSVMHEALHNHYTQKSLSLSPGGGGGSGGGGSGGGGSGGGGSEIVLTQSPGTLSLSPGERATLSCRASQSVSRSYLAWYQQKPGQAPRLLIIGASTRATGIPDRFSGSGSGTDFTLTISRLEPEDFAVYYCQQGQVIPPTFGQGTKVEIK light: DIQMTQSPSSLSASVGDRVTITCRSSQSLVHSNGNTFLHWYQQKPGKAPKLLIYTVSNRFSGVPSRFSGSGSGTDFTLTISSLQPEDFATYFCSQTTHVPWTFGQGTKVEIKRTVAAPSVFIFPPSDEQLKSGTASVVCLLNNFYPREAKVQWKVDNALQSGNSQESVTEQDSKDSTYSLSSTLTLSKADYEKHKVYACEVTHQGLSSPVTKSFNRGEC
